These results are taken from patent US20100184658A1 (published 2010).

Targets include PHKG1 (UniProt Q16816 1-387, limits assumed); NEK7 (UniProt Q8TDX7 1-302, limits assumed); PRKCB2 (PKC beta II) (human (printed as (h)), UniProt P05771-2 1-673); ABL1 G250E (UniProt P00519 1-1130, limits assumed); RPS6KA6 (RSK4) (UniProt Q9UK32 1-745, limits assumed); CAMK2B (CaMKII beta) (UniProt Q13554 1-666, limits assumed).
Holding throughout (test): cell-based or functional assay
The next assay deals with T1, PRKD1 (PKC mu) (UniProt Q15139 1-912, limits assumed).
T1 sequence (looked up): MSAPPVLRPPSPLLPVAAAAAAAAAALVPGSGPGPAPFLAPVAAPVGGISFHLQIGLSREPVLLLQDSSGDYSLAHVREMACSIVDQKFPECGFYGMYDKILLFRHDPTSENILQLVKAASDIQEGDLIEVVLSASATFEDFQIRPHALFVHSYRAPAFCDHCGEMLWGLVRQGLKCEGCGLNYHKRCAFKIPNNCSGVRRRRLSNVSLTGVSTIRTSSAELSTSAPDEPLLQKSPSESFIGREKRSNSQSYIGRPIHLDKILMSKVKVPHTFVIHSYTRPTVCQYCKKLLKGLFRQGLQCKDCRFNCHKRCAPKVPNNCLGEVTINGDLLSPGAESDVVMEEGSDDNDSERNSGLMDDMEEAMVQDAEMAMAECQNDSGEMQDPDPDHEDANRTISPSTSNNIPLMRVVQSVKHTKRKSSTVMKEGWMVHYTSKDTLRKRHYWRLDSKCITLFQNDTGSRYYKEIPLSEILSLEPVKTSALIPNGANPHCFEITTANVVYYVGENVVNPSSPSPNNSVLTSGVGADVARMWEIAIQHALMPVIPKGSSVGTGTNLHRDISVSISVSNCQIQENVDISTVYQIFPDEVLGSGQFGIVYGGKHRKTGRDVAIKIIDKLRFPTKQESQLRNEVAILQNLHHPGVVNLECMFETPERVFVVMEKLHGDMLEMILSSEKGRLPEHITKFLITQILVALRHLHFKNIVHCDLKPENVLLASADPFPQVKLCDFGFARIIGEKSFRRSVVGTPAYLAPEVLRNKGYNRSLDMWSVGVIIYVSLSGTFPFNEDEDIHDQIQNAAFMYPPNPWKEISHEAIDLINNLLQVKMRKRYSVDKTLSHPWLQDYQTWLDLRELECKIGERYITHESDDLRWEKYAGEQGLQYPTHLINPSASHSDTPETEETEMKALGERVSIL

Assay [1] has as its target PAK4 P21(CDKN1A)-activated kinase 4 (UniProt O96013 1-591, limits assumed).
The next assay addresses T2, PRKG2 (PKG2) (UniProt Q13237 1-762, limits assumed).
T2 sequence (looked up): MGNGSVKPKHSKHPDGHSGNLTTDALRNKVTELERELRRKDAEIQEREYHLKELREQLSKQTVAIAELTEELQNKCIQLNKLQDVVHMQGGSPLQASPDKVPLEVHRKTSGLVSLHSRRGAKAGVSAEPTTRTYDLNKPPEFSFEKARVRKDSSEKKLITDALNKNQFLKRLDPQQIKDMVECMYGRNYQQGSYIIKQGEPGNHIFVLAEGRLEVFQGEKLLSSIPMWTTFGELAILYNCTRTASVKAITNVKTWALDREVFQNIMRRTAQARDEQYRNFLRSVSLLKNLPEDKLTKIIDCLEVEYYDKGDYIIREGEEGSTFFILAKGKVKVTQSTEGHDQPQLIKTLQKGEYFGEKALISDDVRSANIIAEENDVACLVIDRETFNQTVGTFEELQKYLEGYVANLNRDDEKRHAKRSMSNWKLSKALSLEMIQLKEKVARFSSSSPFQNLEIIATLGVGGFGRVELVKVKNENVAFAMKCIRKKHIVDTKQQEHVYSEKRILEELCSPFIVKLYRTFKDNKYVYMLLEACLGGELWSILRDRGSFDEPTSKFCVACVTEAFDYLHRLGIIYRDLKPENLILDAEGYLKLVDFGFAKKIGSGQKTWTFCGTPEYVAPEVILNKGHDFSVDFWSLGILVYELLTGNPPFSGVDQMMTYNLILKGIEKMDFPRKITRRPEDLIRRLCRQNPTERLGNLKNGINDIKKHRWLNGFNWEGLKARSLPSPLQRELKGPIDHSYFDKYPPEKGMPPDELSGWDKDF

Assay [2] has as its target T3, TAOK2 (TAO1) TAO kinase 2 (UniProt Q9UL54 1-314, limits assumed).
T3 sequence (looked up): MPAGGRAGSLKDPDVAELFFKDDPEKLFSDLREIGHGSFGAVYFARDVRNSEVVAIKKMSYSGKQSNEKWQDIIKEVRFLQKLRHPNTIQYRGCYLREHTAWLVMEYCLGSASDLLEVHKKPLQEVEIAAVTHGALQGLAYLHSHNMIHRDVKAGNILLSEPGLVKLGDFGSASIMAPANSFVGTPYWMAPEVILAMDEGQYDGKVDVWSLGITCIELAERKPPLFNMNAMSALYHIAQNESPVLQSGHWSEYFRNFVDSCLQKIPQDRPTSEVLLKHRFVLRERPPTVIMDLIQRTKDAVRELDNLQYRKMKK

Chain of CAMK2B (CaMKII beta) (Q13554 whole entry): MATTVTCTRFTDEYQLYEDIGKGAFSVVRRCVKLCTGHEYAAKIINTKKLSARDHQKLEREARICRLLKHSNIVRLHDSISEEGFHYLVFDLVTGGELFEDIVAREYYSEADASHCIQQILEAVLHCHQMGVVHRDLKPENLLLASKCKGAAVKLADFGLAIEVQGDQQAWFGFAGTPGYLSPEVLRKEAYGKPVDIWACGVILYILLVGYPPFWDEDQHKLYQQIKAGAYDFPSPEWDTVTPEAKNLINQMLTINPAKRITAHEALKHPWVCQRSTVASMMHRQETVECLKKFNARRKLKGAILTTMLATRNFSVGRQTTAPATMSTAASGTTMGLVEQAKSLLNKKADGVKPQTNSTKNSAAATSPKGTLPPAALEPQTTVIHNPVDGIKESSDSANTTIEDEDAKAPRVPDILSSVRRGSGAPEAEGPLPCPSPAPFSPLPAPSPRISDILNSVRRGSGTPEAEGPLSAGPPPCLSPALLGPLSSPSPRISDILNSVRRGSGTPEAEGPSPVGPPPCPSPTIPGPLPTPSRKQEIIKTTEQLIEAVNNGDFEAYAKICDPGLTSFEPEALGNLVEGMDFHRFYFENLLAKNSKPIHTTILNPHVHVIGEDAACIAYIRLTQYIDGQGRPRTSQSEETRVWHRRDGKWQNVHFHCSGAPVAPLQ
Chain of PAK4 P21(CDKN1A)-activated kinase 4 (O96013 whole entry): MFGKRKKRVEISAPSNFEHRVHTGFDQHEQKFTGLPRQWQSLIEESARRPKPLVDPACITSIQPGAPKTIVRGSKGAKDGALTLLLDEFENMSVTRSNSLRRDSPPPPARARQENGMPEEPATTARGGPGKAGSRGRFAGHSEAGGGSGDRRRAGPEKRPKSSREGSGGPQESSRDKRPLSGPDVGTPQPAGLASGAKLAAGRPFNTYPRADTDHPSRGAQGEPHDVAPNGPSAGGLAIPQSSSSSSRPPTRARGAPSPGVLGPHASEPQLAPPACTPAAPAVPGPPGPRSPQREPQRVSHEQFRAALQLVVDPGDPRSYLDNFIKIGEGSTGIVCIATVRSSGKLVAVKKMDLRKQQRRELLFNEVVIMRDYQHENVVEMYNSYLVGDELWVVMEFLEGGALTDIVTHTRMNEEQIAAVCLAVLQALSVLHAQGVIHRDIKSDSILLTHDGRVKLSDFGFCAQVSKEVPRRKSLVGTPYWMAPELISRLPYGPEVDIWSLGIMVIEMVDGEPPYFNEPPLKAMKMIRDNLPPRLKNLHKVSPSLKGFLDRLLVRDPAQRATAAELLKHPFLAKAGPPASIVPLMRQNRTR
Chain of PHKG1 (Q16816 whole entry): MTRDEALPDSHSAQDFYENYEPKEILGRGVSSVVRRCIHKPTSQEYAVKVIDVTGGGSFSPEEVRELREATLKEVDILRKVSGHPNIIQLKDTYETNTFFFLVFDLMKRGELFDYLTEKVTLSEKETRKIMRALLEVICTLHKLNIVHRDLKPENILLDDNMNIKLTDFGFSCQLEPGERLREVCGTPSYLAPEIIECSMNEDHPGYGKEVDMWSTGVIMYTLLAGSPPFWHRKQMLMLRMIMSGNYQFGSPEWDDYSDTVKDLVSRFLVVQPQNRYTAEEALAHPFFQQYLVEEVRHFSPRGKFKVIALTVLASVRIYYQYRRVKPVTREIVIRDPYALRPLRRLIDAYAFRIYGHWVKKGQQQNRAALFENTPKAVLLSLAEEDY
Chain of NEK7 (Q8TDX7 whole entry): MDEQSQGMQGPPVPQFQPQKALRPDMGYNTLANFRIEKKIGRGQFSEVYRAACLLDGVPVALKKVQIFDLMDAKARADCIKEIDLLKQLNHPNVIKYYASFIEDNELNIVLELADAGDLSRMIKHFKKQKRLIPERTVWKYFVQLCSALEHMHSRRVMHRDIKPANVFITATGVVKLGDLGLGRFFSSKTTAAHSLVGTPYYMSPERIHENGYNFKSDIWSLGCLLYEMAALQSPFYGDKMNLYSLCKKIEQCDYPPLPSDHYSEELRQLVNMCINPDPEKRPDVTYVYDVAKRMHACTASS
Chain of PRKCB2 (PKC beta II) (human (printed as (h)), UniProt P05771-2 1-673) (P05771 other isoform, or with tags, fused parts or gaps limits assumed): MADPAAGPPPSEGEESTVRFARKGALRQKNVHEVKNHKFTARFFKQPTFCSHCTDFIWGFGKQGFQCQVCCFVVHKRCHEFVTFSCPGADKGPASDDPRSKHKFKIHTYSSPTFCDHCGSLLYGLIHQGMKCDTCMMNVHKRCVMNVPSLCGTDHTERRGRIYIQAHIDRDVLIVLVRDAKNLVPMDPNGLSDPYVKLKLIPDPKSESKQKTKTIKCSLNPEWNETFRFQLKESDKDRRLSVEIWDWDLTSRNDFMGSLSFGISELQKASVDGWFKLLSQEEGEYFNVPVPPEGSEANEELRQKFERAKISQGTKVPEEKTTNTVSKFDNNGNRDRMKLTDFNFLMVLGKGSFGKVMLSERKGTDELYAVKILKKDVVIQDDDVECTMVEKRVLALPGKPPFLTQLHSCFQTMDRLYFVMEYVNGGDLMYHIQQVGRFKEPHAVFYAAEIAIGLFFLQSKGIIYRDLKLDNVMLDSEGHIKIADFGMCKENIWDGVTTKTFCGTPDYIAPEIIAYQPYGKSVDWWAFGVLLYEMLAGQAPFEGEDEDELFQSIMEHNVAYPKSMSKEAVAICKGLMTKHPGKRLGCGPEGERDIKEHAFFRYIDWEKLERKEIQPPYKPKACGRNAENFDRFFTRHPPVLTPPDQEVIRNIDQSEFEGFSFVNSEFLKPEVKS
Chain of RPS6KA6 (RSK4) (Q9UK32 whole entry): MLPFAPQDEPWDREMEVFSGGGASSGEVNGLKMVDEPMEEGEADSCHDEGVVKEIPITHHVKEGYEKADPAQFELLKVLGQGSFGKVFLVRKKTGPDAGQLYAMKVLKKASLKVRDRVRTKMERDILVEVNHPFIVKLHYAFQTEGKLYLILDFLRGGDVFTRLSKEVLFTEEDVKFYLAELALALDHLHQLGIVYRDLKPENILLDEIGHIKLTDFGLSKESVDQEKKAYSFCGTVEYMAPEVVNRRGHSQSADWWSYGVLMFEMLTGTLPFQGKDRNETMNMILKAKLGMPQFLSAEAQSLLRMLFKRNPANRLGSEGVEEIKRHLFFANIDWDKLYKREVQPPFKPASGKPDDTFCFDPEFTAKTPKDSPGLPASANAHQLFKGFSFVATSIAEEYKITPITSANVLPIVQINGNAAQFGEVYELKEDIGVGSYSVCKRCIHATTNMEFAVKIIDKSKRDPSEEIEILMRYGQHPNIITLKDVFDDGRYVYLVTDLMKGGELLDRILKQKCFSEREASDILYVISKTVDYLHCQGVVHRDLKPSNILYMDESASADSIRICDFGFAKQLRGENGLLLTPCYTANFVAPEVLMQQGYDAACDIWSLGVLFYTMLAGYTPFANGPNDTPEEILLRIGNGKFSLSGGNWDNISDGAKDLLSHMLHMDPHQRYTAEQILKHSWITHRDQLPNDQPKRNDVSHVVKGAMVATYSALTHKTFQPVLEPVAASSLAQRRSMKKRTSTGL
Chain of ABL1 G250E (P00519 whole entry G250E): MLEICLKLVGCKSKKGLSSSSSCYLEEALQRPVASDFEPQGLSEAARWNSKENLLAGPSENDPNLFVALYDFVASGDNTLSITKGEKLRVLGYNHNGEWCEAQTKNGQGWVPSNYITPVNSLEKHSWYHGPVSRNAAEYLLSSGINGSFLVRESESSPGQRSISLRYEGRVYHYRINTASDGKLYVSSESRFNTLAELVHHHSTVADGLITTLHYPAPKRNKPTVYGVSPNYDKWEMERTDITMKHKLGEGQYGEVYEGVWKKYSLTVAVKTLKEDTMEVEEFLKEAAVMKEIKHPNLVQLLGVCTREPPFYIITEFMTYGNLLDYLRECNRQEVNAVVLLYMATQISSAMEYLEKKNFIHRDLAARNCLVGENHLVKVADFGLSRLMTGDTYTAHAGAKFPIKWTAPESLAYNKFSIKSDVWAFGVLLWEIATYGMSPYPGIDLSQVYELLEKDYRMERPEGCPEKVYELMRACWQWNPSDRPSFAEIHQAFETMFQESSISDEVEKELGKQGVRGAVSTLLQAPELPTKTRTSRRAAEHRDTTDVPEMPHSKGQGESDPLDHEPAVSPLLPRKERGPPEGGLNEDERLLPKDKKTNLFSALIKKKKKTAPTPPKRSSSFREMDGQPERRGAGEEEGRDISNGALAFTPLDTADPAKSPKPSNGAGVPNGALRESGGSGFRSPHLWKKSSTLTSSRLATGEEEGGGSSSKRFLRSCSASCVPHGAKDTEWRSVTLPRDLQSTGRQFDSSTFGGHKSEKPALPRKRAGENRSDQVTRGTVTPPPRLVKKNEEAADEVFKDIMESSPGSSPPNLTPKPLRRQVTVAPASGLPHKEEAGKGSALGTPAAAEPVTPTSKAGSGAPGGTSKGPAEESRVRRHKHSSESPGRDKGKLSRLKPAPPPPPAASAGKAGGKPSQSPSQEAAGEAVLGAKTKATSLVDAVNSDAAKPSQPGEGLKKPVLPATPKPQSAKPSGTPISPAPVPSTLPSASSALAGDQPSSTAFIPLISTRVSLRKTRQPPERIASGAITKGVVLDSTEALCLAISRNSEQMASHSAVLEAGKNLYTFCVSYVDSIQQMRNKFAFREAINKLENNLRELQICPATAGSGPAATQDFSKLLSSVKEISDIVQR

As for SGRPPMIVWFNRPFLIAVSHTHGQTILFMAKVINPVGA [D3 peptide], the “% Inhibition mean” value in the assay with PRKD1 (PKC mu) was determined as 80.6%; with PHKG1, 54.8%; with NEK7, 73.8%; in assay [1], 47%; with PRKG2 (PKG2) it was 101%; in the assay with PRKCB2 (PKC beta II), 61.6%. The “% Inhibition mean” value with ABL1 G250E is 50.7%; in [2], 100%; in the assay with RPS6KA6 (RSK4) it was 87.6%; with CAMK2B (CaMKII beta) it was 90.3%.
